Data taken from patent publication US9150638B2, “Factor XII inhibitors for treating interstitial lung disease” (Justus-Liebig-Universität Giessen, priority 2010, dated 2015).

Tests used:
murine lung fibroblasts = assay: Proliferation assay, [3H]-thymidine incorporation after FXIIa stimulation; format: cell-based; conditions: for FXIIa-induced proliferation ([3H]-thymidine incorporation): added or preincubated 1-2 hours before FXIIa, 10.0 μM PD98059, 5 μM SP600125, 0.7 μM Wortmannin, 3 μM SB203580, blocking antibodies 5 μg/ml
Procedure: Human lung specimens of the pulmonary parenchyma and mouse lungs were chopped into <1 mm^3 pieces. The minced pieces were washed twice with PBS and then plated in 100-mm dishes (Greiner-bio-one, Frickenhausen, Germany). The specimens were cultured with Dulbecco's modified Eagle's medium (DMEM; Invitrogen, Karlsruhe, Germany) supplemented with 10% fetal calf serum (FCS; HyClone, South Logan, UT), and 1% penicillin/streptomycin (Invitrogen) in humidified atmosphere of 5% CO2 at 37° C. Purity of isolated fibroblasts was verified by positive staining for vimentin, fibronectin and collagen IV. All experiments were carried out with lung fibroblasts from passages 3-4. The mouse NIH3T3 fibroblasts were cultured in DMEM supplemented with 10% FCS, and 1% penicillin/streptomycin in humidified atmosphere of 5% CO2 at 37° C. The primary murine lung fibroblasts were seeded in 48-well plates and starved in serum free DMEM (Dulbecco's Modified Eagle's Medium) for 24 hours prior to FXIIa (American Diagnostica, Stamford, Conn.) stimulation. In some experiments cells were preincubated with 5 μg/ml anti-uPAR (R&D Systems, Wiesbaden, Germany), anti-β1-integrin or anti-α5-integrin (both from Millipore, Billerica, Mass.) blocking antibodies 1-2 hours before exposure to FXIIa. In addition in some experiment 10.0 μM PD98059, 5 μM SP600125, 0.7 μM Wortmannin, 3 μM SB203580 (all from Calbiochem, Darmstadt, Germany) were added to the cell culture medium 1-2 hours prior to the addition of FXIIa. Cells were treated with 3-9 μg/ml FXIIa alone or in the presence of its specific inhibitors: Corn Trypsin Inhibitor ([…]-chloromethylketone (PCK, Bachem, Weil am Rhein, Germany) or uPAR synthetic peptides. After 24-36 hours the cells were exposed to [3H]Thymidine (0.2 μCi per well) for 6-12 hours, rinsed three times with PBS and solubilized with 0.2 ml 0.5M sodium hydroxide. 0.1 ml of the solubilized material was quantified by liquid scintillation counting (TRI-CARB® 1500, A Canbera Company, Meriden, Conn.). [^3H]Thymidine incorporation was expressed as absolute radioactivity (counts per minute per well).

FXII [1] = assay: TGF-β1-induced FXII expression in HLF; format: cell-based, human; conditions: for FXII expression in response to TGF-β1 (Western blot): HLF treated with inhibitor 1 h prior to TGF-β1 for 48 h
Procedure: Human lung specimens of the pulmonary parenchyma and mouse lungs were chopped into <1 mm^3 pieces. The minced pieces were washed twice with PBS and then plated in 100-mm dishes (Greiner-bio-one, Frickenhausen, Germany). The specimens were cultured with Dulbecco's modified Eagle's medium (DMEM; Invitrogen, Karlsruhe, Germany) supplemented with 10% fetal calf serum (FCS; HyClone, South Logan, UT), and 1% penicillin/streptomycin (Invitrogen) in humidified atmosphere of 5% CO2 at 37° C. Purity of isolated fibroblasts was verified by positive staining for vimentin, fibronectin and collagen IV. All experiments were carried out with lung fibroblasts from passages 3-4. The mouse NIH3T3 fibroblasts were cultured in DMEM supplemented with 10% FCS, and 1% penicillin/streptomycin in humidified atmosphere of 5% CO2 at 37° C.
(§1) Proteins separated on SDS polyacrylamide gel were transferred to a PVDF membrane (Amersham Biosciences, Freiburg, Germany) using wet transfer technique in transfer buffer (25 mM Tris, 192 mM Glycine, 20% (v/v) Methanol) for 1 h at 100V. After blocking with 5% non-fat dry milk in tris-buffered saline (TBS; 25 mM Tris-Cl, 150 mM NaCl, pH 7.5) containing 0.1% (v/v) Tween 20 (TBS-T), the membranes were incubated at 4° C. overnight with appropriate primary antibody diluted in 1% BSA in TBS-T. After 1 h incubation with peroxidase-labelled secondary antibody (all from Dako, Gostrup, Denmark) proteins were detected using ECL Plus Kit (Amersham Biosciences, Freiburg, Germany). To determine the amounts of protein loaded on the gel, blots were in 1 hour (stripping buffer: 100 mM Glycine, 1% HCl) and reprobed using an anti-β-actin or appropriate anti-pan antibody.
Pre-designed, commercially available siRNA sequences directed against human Smad 3 (Dharmacon, Chicago, Ill.), human JNK1 (Abnova, Heidelberg, Germany), and an universal negative-control siRNA (Ambion, Austin, Tex.) were employed. Cells were treated with siRNA (250 nM each) using the X-treme Gene siRNA Transfection Reagent (Roche). The siRNA-mediated downregulation of the target genes was assessed 72 h after transfection by Western blotting.

cyclin D1 = assay: Immunoblot of cyclin D1 expression after FXIIa stimulation; format: cell-based, murine; conditions: 6 hours after 6 μg/ml FXIIa stimulation
Procedure: as §1

FXII [2] = biological target: T1, FXII (Homo sapiens, UniProt P00748); assay: FXII activity assay using chromogenic substrate, BALF from IPF patients; format: biochemical
T1 construct: increased enzymatic activity FXII in broncholaveolar lavage fluid (BALF) from IPF patients; from tissue; host or cells: bronchoalveolar lavage fluid (BALF) of IPF patients and donors
T1 sequence (P00748 20-615): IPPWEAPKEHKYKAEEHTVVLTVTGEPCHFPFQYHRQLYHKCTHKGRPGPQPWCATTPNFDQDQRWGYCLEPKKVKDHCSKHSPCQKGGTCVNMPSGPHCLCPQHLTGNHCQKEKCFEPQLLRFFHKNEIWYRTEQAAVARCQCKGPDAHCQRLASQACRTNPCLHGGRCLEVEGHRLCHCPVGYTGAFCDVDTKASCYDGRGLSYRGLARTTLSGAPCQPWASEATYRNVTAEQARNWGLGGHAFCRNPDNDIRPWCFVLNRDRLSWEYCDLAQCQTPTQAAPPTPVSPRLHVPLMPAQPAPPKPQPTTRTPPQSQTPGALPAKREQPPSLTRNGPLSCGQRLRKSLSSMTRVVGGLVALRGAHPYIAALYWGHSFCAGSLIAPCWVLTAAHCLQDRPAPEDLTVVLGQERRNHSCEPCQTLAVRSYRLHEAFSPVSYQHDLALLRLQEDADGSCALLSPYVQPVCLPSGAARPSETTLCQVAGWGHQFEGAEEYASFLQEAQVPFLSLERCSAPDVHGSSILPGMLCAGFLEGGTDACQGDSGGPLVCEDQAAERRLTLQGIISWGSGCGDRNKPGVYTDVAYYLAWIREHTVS
Excerpt: A test for determining the catalytic activity of FXIIa is described in Kannemeier C, Shibamiya A, Nakazawa F, Trusheim H, Ruppert C, Markart P, Song Y, Tzima E, Kennerknecht E, Niepmann M, Bruehl M L, Sedding D, Massberg S, Gunther A, Engelmann B, Preissner K T. Extracellular RNA constitutes a natural procoagulant cofactor in blood coagulation. Proc Natl Acad Sci USA. 104:6388-6393, 2007. Briefly, the FXIIa-sample and a chromogenic substrate peptide is mixed, and the release of p-nitroanilin is followed over time in a photometer at 405 nm. A compound is suitable as an inhibitor of the catalytic, in particular the enzymatic activity of FXIIa if it is capable of reducing the catalytic activity in that assay in a significant manner, preferably by at least 10%, more preferably by at least 25%, most preferably by at least 50% such as at least 75% or even at least 90%.

p44/42 = assay: Western blot of p44/42 phosphorylation after FXIIa exposure; format: cell-based, murine; conditions: after 30 min of FXIIa exposure
Procedure: as §1

Akt = assay: Western blot of Akt phosphorylation after FXIIa exposure; format: cell-based, murine; conditions: after 30 min of FXIIa exposure
Procedure: as §1

[3] = system: bleomycin induced lung fibrosis; assay: Bleomycin induced lung fibrosis in mice with intratracheal CTI
Excerpt: Male mice weighing between 20-22 g were used in all experiments. Animals were kept according to NIH guidelines and experiments were undertaken with permission of local authorities. The animals were anesthetized by intraperitoneal injection of a mixture of ketamine hydrochloride and xylazine hydrochloride. Bleomycin in dosis 5U/kg body weight was given as aerosol. For bleomycin delivery, animals were orotracheally intubated and mechanically ventilated. A microsprayer (Penn-Century Inc, Philadelphia, Pa.) was filled with 100 μl of saline solution containing bleomycin, introduced into the tracheal cannula, positioned slightly above the carina and aerosol generation was achieved under end-expiratory breath arrest by rapidly emptying the syringe. Controls mice received vehicle only (0.9% saline). 5 mg/kg CTI and 8 mg/kg PCK, both diluted in 0.9% saline, were administrated intratracheally on day 9, 12, 15 and 18 in dosis or of mouse body weight, respectively. The mice were sacrificed after 21 days post application (if not indicated in the text) with a lethal dose of ketamine and xylazine.
Mice were tracheotomised and ventilated in a volume driven mode at a positive end-expiratory pressure of 0 kPa. Respiration rate was set at 20 breaths·min^−1 and ventilation pressure was recorded while inflating the lung at a tidal volume of 200 μL.
After sacrifice of animals, the chest was opened and the lungs were flushed via a catheter that was placed into the pulmonary artery with PBS buffer. Once the effluent was clear of blood, lungs were removed and placed in paraformaldehyde or nitrogen for further examination. For cells isolation lungs were placed in PBS buffer.
Paraffin-embedded, formalin-fixed lung tissue was sectioned at 5 microns and processed for immunohistochemical staining using appropriate primary antibody and ZytoChem Plus AP-Fast Red Kit according to the manufacturer's instructions (Zytomed Systems, Berlin, Germany). Negative controls were obtained in all cases by omitting the primary antibody.

[4] = FIG. 25D,E, bleomycin application
[5] = day 21 after bleomycin, CTI 5 mg/kg intratracheally
[6] = saline control animals which received CTI

Q: For `C[S+]([O-])c1ccc(-c2nc(-c3ccncc3)c(-c3ccc(F)cc3)[nH]2)cc1` (stereo not drawn) [SB203580, reference compound], which “FXIIa-induced proliferation ([3H]-thymidine incorporation)” value (murine lung fibroblasts) is on record?
A: The value was “No change in DNA sythesis”.

Q: And the “FXII expression in response to TGF-β1 (Western blot)” value (FXII [1])?
A: The value was “No change in FXII expression”.

Q: What does the source list for `COc1cccc(-c2cc(=O)c3ccccc3o2)c1N` [PD98059, reference compound]?
A: FXIIa-induced proliferation ([3H]-thymidine incorporation) (murine lung fibroblasts): reduction of murine lung fibroblasts proliferation; FXII expression in response to TGF-β1 (Western blot) (FXII [1]): No change in FXII expression

Q: “TGF-β1: cytokine (R&D Systems) used at 10 ng/ml to stimulate cells” was tested. Which “synthesis of FXII in HLF” value (FXII [1]; exposure to 10 ng/ml TGF-β1) did it give?
A: Its value is “stimulated the synthesis of FXII in a time dependent manner”.

B1: FXIIa: activated factor XII (American Diagnostica) used to stimulate fibroblasts (protein)
chain: T1 sequence (P00748 20-615)
Q: How did the “DNA synthesis ([3H]-thymidine incorporation) after FXIIa treatment” value (murine lung fibroblasts; increasing concentration of FXIIa) turn out when B1 was run?
A: The value was “dose-dependent increase”.

Q: What about the “cyclin D expression” value (cyclin D1) of the same molecule?
A: Its value is “increased”.

B2: CTI: Corn Trypsin Inhibitor, a specific FXII activity inhibitor (Calbiochem) (protein)
chain: SAGTSCVPGWAIPHNPLPSCRWYVTSRTCGIGPRLPWPELKRRCCRELADIPAYCRCTALSILMDGAIPPGPDAQLEGRLEDLPGCPREVQRGFAATLVTEAECNLATIS
Q: Which “FXII activity (chromogenic substrate)” value (FXII [2]) does the source give for B2 here?
A: Its value is “blockade of FXII activity”.

Q: What about the “FXIIa-induced proliferation ([3H]-thymidine incorporation)” value (murine lung fibroblasts) of the same molecule?
A: The value was “blocked”.

Q: What about the p44/42 phosphorylation (p44/42) of the same molecule?
A: Its p44/42 phosphorylation is “attenuated”.

Q: What about the Akt phosphorylation (Akt) of the same molecule?
A: Its Akt phosphorylation is “attenuated”.

Q: And the “lung remodelling and collagen deposition” value ([3]; FIG. 25A, bleomycin-treated mice)?
A: Its value is “largely protected against lung remodelling and collagen deposition”.

Q: And the “survival curves (Kaplan-Meier plot)” value ([3]; FIG. 25B, bleomycin-treated mice)?
A: The value was “significantly protected”.

Q: And the “increase in collagen content” value [3, 4]?
A: Its value is “significantly prevented”.

Q: And the “increase in septum thickness” value [3, 4]?
A: The value was “significantly prevented”.

Q: What about the “collagen accumulation (Masson-Trichrom staining)” value [3, 5] of the same molecule?
A: The value was “markedly reduced”.

Q: And the “histologic findings in the lungs (fibrotic lesions)” value [3, 5]?
A: Its value is “less fibrotic lesions”.

Q: What about the lung compliance ([3]; day 21 after bleomycin, CTI 5 mg/kg intratracheally at day 9, 12, 15 and 18) of the same molecule?
A: The lung compliance was “significantly improved”.

Q: And the mortality ([3]; day 21 post bleomycin challenge, CTI 5 mg/kg intratracheally at day 9, 12, 15 and 18)?
A: Its mortality is 20%.

Q: And the “histological changes in the lung” value [3, 6]?
A: Its value is “no histological changes in the lung”.

Q: And the “inflammatory cells infiltration into airspaces” value [3, 6]?
A: Its value is “mild degree of inflammatory cells infiltration into airspaces”.
